The source of these data is patent publication US11034736B2, “Anti-viral cnidarins” (priority 2014, dated 2021).

What is called EC50 is the concentration at which the effect is half-maximal.

In one test the test system is HIV-1ROJO. As to the kind of experiment: HIV-1 ROJO replication in human PBMC cultures, supernatant reverse transcriptase activity. The test is classed as cell-based. The following applies: T-tropic primary isolate. An excerpt: To test the anti-HIV activity of CNID1 against HIV primary isolates in fresh human cells, monocyte-tropic HIV-1 strain Ba-L was obtained from the NIAID AIDS Research and Reference Reagent Program (National Institutes of Health, Bethesda, Md.). The low passage HIV-1 pediatric isolate ROJO was derived as described previously (Buckheit et al., AIDS Res. Hum. Retroviruses, 10: 1497-1506 (1994)). Human peripheral blood mononuclear cells (PBMCs) and macrophages were isolated from hepatitis and HIV seronegative donors following Ficoll-Paque centrifugation as described elsewhere (Gartner & Popovic, Techniques in HIV Research, Aldovini, A. and Walker B., eds., pp. 59-63, Stockton Press, New York, 1990). Antiviral assays were carried out with 3-day-old phytohaemagglutinin/interleukin-2 stimulated PBMCs or 6-day-cultured monocyte/macrophages. […] HIV-1 replication in PBMC (ROJO) or monocyte macrophage (Ba-L) cultures were determined by measurement of reverse transcriptase activity (Buckheit et al., Antiviral Res., 21: 247-265 (1993)) in the supernatants or p24 antigen expression by ELISA (Coulter, Hialeah, Fla.), respectively. Cell viability by formazan dye reduction was determined in replicated cultures using the CellTiter reagent (Promega, Madison, Wis.). […]

A further test concerns HIV-1IIIB. The test is described as follows: Viral fusion assay, chemiluminescence in HeLa CD4 LTR β-gal cells. In kind it is cell-based. How it is done:
Attachment and fusion assays were performed in HeLa-CD4-LTR-β-galactosidase cell lines as described previously (Gartner & Popovic, (1990), supra) with the following modifications. Following the interaction of HIV-1IIIIIB with HeLa CD4 LTR β-gal cells, viral attachment to HeLa CD4 LTR β-gal cells was detected as cell-associated p24 antigen following a 1 hour adsorption of virus and vigorous washing for removal of unbound virus. Fusion of HIV-1IIIIB with HeLa CD4 LTR β-gal cells was detected by chemiluminescence using a single-step lysis and detection method (Tropix Gal-screen, Bedford, Mass.) and results reported as EC50 values. Chicago Sky Blue, a polysulfonic acid dye inhibitor of HIV attachment and fusion, was used as a positive control for all assays (Clanton et al., J. Acquired Immune Defic. Syndr., 5: 771-781 (1992)).

A further test has as its target HIV-1IIIB gp120 (Human immunodeficiency virus type 1 group M subtype B, UniProt P04578). How it is done:
Additional ELISA studies were performed to assess the effect of monosaccharides on CNID-1 binding to gp120 and gp41. The plates were prepared with native HIV-1IIIB gp120 (Advanced Biotechnologies, Columbia, Md.) or recombinant HIV-1HxB2 gp41 (Vybion Inc., Ithaca, N.Y.), and 100 ng/well rCNID-1-Trx was added in the presence or absence of 1 mM concentrations of the following sugars: glucose, mannose, galactose, fucose, xylose, N-acetylglucosamine (GlcNAc), N-acetylgalactosamine (GalNAc), or 100 ng/well α-acid glycoprotein (to act as a carrier for sialic acid). The plates were then washed and visualized using anti-CNID-1 polyclonal antibodies as above.
Plates to test the effect of sCD4 on CNID-1 binding to gp120 were prepared with recombinant HIV-1IIIB gp120 (Immuno Diagnostics, Woburn, Mass.) at 4° C. overnight (100 ng/well) and blocked as previously described. Serial dilutions of rCNID-1-Trx were added in the presence (test plate) or absence (control plate) of 50 ng/well sCD4 (sCD4-183, 2-domain, NIH AIDS Research & Reference Reagent Program, Germantown, Md.) and incubated for 1 hr. Plates were washed and visualized as above. Plates to test for the effect of CV-N, SVN or GRFT on CNID-1 binding to gp120 were prepared with recombinant HIV-NIIIB gp120 (Immuno Diagnostics, Woburn, Mass.) at 4° C. overnight (100 ng/well) and blocked as previously described. CV-N (100 ng/well), SVN (100 ng/well) or GRFT (130 ng/well) were added (PBST was added to control wells) and incubated for 30 minutes, followed by serial dilutions of rCNID-1-Trx and further incubated for 75 minutes. The plates were then washed and visualized using anti-CNID-1 polyclonal antibodies as previously outlined.
Plates were prepared with recombinant HIV-1IIIIB gp120 (Immuno Diagnostics, Woburn, Mass.) at 4° C. overnight (100 ng/well) and blocked as previously described. rCNID-1-Trx were added: 250 ng/well for sCD4 test plate or 500 ng/well for the GRFT test plate, and PBST (50 μl/well) to the control plate; incubation done for 2 hrs. The plates were washed as before and serial dilutions of sCD4 (sCD4-183, 2-domain, NIH AIDS Research & Reference Reagent Program, Germantown, Md.) or GRFT were added; incubated for 1 hr 10 minutes. Plates were washed as before. Primary antibodies were added at 100 μl/well: mouse anti-CD4 (ProSci Inc., Poway, Calif.) at 1:1000 dilution or rabbit anti-GRFT at 1:500 dilution; incubation done for 1 hr. The plates were washed as before and peroxidase conjugated secondary antibodies (Thermo Fisher Scientific Inc., Rockford, Ill.) were added at 100 μl/well: goat anti-mouse (sCD4 plate) or goat anti-rabbit (GRFT plate) at a 1:1000 dilution; incubation for 1 hr. The plates were then washed and visualized as previously outlined.

The next test relates to HIV-1US/92/727. The test is described as follows: Anti-HIV evaluation in PHA-stimulated human PBMCs, reverse transcriptase in supernatant. The test is classed as cell-based. The following applies: HIV-1US/92/727, human PBMCs, 7 days. How it is done: The cultures were incubated for 7 days at 37° C./5% CO2. Efficacy of the compounds was evaluated by measuring the amount of reverse transcriptase in the culture supernatant and toxicity was evaluated using XTT to measure cell viability. AZT was evaluated in parallel as an assay control.

B1: CNID-1: HIV-inhibitory protein from soft coral Synthecium sp.; 172 amino acids, 18,122 Da, SEQ ID NO: 1 (protein)
chain: GRATLGQLKTSTIPPVTFDVPFDGANIPQDVRFTIATVNGGKGALYNAELGESAGHTIVLESDGDHPIPGTFDPKSGRGLDYLPRGLVLFSSHNYVGNMKMYTEPDSDITADFPPGTPFGVSSAITGEGSAFQLNTGIDHTGEFEIIPPNTKRNLAGVFDNEIRSVSPTGGK
In the test with HIV-1ROJO, B1 showed an EC50 of 3.97 nM. Also, the “Inhibition of viral fusion” value in the test with HIV-1IIIB is given as “inhibit HIV viral fusion”. The half-maximal effective concentration (EC50) in the test with HIV-1IIIB (read-out: Inhibition of Fusion EC50) is 1.49 nM. Further, the “CNID-1 binding to gp120 after CV-N pre-treatment” value with HIV-1IIIB gp120 (CV-N 100 ng/well) is “did not affect CNID-1 binding”. Further, in the test with HIV-1IIIB gp120 (ELISA), the “CNID-1 binding to gp120 after GRFT pretreatment” value is on record as “reduced CNID-1 binding to gp120”, the “CNID-1 binding to gp120 after pretreatment with sCD4” value is reported as “did not block CNID-1 binding to gp120” and the “sCD4 binding to gp120 after pre-treatment with CNID-1” value is given as “did not block subsequent binding of sCD4 to gp120”. Further, in the test with HIV-1IIIB gp120 (SVN 100 ng/well), the “CNID-1 binding to gp120 after SVN pre-treatment” value was “did not affect CNID-1 binding”. In addition, in the test with HIV-1IIIB gp120 (rCNID-1 500 ng/well), the “GRFT binding to gp120 after pretreatment with CNID-1” value is “did not inhibit GRFT binding to gp120”. Also, the “CNID-1 binding to gp120 in presence of α-acid glycoprotein” value with HIV-1IIIB gp120 (α-acid glycoprotein as carrier of sialic acid) was “not inhibited”. In the test with HIV-1US/92/727, this molecule yielded a concentration for a half-maximal effect (EC50) of 0.0427 µg/mL.
